Experiment [1] addresses T1, human calcitonin receptor (human, UniProt P30988 25-474).
T1 construct: whole, on cells; Used as cell membranes; also called hCTR; hCT
T1 sequence (looked up): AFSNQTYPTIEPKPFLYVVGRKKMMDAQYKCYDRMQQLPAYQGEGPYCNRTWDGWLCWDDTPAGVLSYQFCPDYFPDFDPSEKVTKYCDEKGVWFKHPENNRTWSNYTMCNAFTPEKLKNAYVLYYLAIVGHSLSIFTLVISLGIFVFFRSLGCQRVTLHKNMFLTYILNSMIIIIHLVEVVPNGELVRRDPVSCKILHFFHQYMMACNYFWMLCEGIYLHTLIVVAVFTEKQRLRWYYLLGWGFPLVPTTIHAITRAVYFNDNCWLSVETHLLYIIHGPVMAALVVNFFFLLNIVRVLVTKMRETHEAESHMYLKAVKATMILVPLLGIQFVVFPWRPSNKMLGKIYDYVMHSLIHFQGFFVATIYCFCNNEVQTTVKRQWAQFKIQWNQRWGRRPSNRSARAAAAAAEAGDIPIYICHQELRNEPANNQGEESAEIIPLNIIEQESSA
Briefly: ratio of hCTR IC50 to hAmylin-R IC50 (reference: human amylin receptor). The procedure, abridged:
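Competition binding by SPA with cell membranes (35 ng/μL) and SPA beads in 50 mM Hepes pH 7.4 with 1 mM CaCl2, 5 mM MgCl2, 0.1% OA and 0.02% Tween20. Incubated 120 min at 25 °C with shaking, then counted.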

The target in experiment [2] is T1, human calcitonin receptor. Briefly: SPA competition on BHK cell membranes, 125I-calcitonin as radioligand (Assay VII). The procedure, abridged: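 BHK hCTR membranes 35 ng/μL + SPA beads 0.05 mg/well; buffer 50 mM Hepes pH 7.4, 1 mM CaCl2, 5 mM MgCl₂, 0.1% OA, 0.02% Tween20. 120 min, 25° C., shaking. Scintillation count; IC50 by one-site binding competition.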

From patent publication US20140087995A1 (published 2014) come the findings set out here.

One may read the IC50 as the concentration that inhibits the measured activity by half.

Numbered stars: 1 amine (or outer) side, 2 acyl side, 3 side chain; on linkers, the order of the positions; unused ones are H or OH. Bridge positions count the residues as written; N and C are the ends. Side chains are listed from the residue outwards. Ends that are not written are not given here. * marks the point of attachment. C20 diacid = O=C(O)CCCCCCCCCCCCCCCCCCC(=O)*; γGlu = O=C(O)[C@H](CCC(=O)[*:2])N[*:1]

B1: N^ε1-[(4S)-4-carboxy-4-(19-carboxynonadecanoylamino)butanoyl]-[His14,Arg17,Pro21,Pro27,His34]-h-amylin (peptide)
peptide: K([γGlu-C20 diacid])CNTATCATQRLAHFLRHSSPNFGAIPSSTNVGHNTY-NH2
modifications: disulfide 2-7; N-terminus assumed
SMILES: CC[C@H](C)[C@H](NC(=O)[C@H](C)NC(=O)CNC(=O)[C@H](Cc1ccccc1)NC(=O)[C@H](CC(N)=O)NC(=O)[C@@H]1CCCN1C(=O)[C@H](CO)NC(=O)[C@H](CO)NC(=O)[C@H](Cc1c[nH]cn1)NC(=O)[C@H](CCCNC(=N)N)NC(=O)[C@H](CC(C)C)NC(=O)[C@H](Cc1ccccc1)NC(=O)[C@H](Cc1c[nH]cn1)NC(=O)[C@H](C)NC(=O)[C@H](CC(C)C)NC(=O)[C@H](CCCNC(=N)N)NC(=O)[C@H](CCC(N)=O)NC(=O)[C@@H](NC(=O)[C@H](C)NC(=O)[C@@H]1CSSC[C@H](NC(=O)[C@@H](N)CCCCNC(=O)CC[C@H](NC(=O)CCCCCCCCCCCCCCCCCCC(=O)O)C(=O)O)C(=O)N[C@@H](CC(N)=O)C(=O)N[C@@H]([C@@H](C)O)C(=O)N[C@@H](C)C(=O)N[C@@H]([C@@H](C)O)C(=O)N1)[C@@H](C)O)C(=O)N1CCC[C@H]1C(=O)N[C@@H](CO)C(=O)N[C@@H](CO)C(=O)N[C@H](C(=O)N[C@@H](CC(N)=O)C(=O)N[C@H](C(=O)NCC(=O)N[C@@H](Cc1c[nH]cn1)C(=O)N[C@@H](CC(N)=O)C(=O)N[C@H](C(=O)N[C@@H](Cc1ccc(O)cc1)C(N)=O)[C@@H](C)O)C(C)C)[C@@H](C)O
notes: also called compound 81
Turning to B1, in experiment [1], the “Ratio hCT/hAmylin binding” value came out at 87.2. Moreover, in experiment [2], the IC50 is 23.6 nM.

B2: N^ε1-[(4S)-4-carboxy-4-[[(4S)-4-carboxy-4-(19-carboxynonadecanoylamino)butanoyl]amino]butanoyl]-[Glu14,Arg17,Pro21,Pro27,Arg34,Glu35]-h-amylin (peptide)
peptide: K([γGlu-γGlu-C20 diacid])CNTATCATQRLAEFLRHSSPNFGAIPSSTNVGRETY-NH2
modifications: disulfide 2-7; N-terminus assumed
SMILES: CC[C@H](C)[C@H](NC(=O)[C@H](C)NC(=O)CNC(=O)[C@H](Cc1ccccc1)NC(=O)[C@H](CC(N)=O)NC(=O)[C@@H]1CCCN1C(=O)[C@H](CO)NC(=O)[C@H](CO)NC(=O)[C@H](Cc1c[nH]cn1)NC(=O)[C@H](CCCNC(=N)N)NC(=O)[C@H](CC(C)C)NC(=O)[C@H](Cc1ccccc1)NC(=O)[C@H](CCC(=O)O)NC(=O)[C@H](C)NC(=O)[C@H](CC(C)C)NC(=O)[C@H](CCCNC(=N)N)NC(=O)[C@H](CCC(N)=O)NC(=O)[C@@H](NC(=O)[C@H](C)NC(=O)[C@@H]1CSSC[C@H](NC(=O)[C@@H](N)CCCCNC(=O)CC[C@H](NC(=O)CC[C@H](NC(=O)CCCCCCCCCCCCCCCCCCC(=O)O)C(=O)O)C(=O)O)C(=O)N[C@@H](CC(N)=O)C(=O)N[C@@H]([C@@H](C)O)C(=O)N[C@@H](C)C(=O)N[C@@H]([C@@H](C)O)C(=O)N1)[C@@H](C)O)C(=O)N1CCC[C@H]1C(=O)N[C@@H](CO)C(=O)N[C@@H](CO)C(=O)N[C@H](C(=O)N[C@@H](CC(N)=O)C(=O)N[C@H](C(=O)NCC(=O)N[C@@H](CCCNC(=N)N)C(=O)N[C@@H](CCC(=O)O)C(=O)N[C@H](C(=O)N[C@@H](Cc1ccc(O)cc1)C(N)=O)[C@@H](C)O)C(C)C)[C@@H](C)O
On to B2, for which, in experiment [1], the “Ratio hCT/hAmylin binding” value is 14.7. Also, the IC50 in experiment [2] came out at 14.1 nM.

B3: N^ε1-[(4S)-4-carboxy-4-[[(4S)-4-carboxy-4-(19-carboxynonadecanoylamino)butanoyl]amino]butanoyl]-[Glu14,Arg17,Pro21,Pro27,Arg34]-h-amylin (peptide)
peptide: K([γGlu-γGlu-C20 diacid])CNTATCATQRLAEFLRHSSPNFGAIPSSTNVGRNTY-NH2
modifications: disulfide 2-7; N-terminus assumed
SMILES: CC[C@H](C)[C@H](NC(=O)[C@H](C)NC(=O)CNC(=O)[C@H](Cc1ccccc1)NC(=O)[C@H](CC(N)=O)NC(=O)[C@@H]1CCCN1C(=O)[C@H](CO)NC(=O)[C@H](CO)NC(=O)[C@H](Cc1c[nH]cn1)NC(=O)[C@H](CCCNC(=N)N)NC(=O)[C@H](CC(C)C)NC(=O)[C@H](Cc1ccccc1)NC(=O)[C@H](CCC(=O)O)NC(=O)[C@H](C)NC(=O)[C@H](CC(C)C)NC(=O)[C@H](CCCNC(=N)N)NC(=O)[C@H](CCC(N)=O)NC(=O)[C@@H](NC(=O)[C@H](C)NC(=O)[C@@H]1CSSC[C@H](NC(=O)[C@@H](N)CCCCNC(=O)CC[C@H](NC(=O)CC[C@H](NC(=O)CCCCCCCCCCCCCCCCCCC(=O)O)C(=O)O)C(=O)O)C(=O)N[C@@H](CC(N)=O)C(=O)N[C@@H]([C@@H](C)O)C(=O)N[C@@H](C)C(=O)N[C@@H]([C@@H](C)O)C(=O)N1)[C@@H](C)O)C(=O)N1CCC[C@H]1C(=O)N[C@@H](CO)C(=O)N[C@@H](CO)C(=O)N[C@H](C(=O)N[C@@H](CC(N)=O)C(=O)N[C@H](C(=O)NCC(=O)N[C@@H](CCCNC(=N)N)C(=O)N[C@@H](CC(N)=O)C(=O)N[C@H](C(=O)N[C@@H](Cc1ccc(O)cc1)C(N)=O)[C@@H](C)O)C(C)C)[C@@H](C)O
notes: also called compound 88
Consider B3, for which the “Ratio hCT/hAmylin binding” value in experiment [1] is 46.5. Moreover, the IC50 in experiment [2] came to 34.9 nM.

B4: N^ε1-[(4S)-4-carboxy-4-[[(4S)-4-carboxy-4-(19-carboxynonadecanoylamino)butanoyl]amino]butanoyl]-[Glu14,Arg17,Pro21,Pro27,His34,Glu35]-h-amylin (peptide)
peptide: K([γGlu-γGlu-C20 diacid])CNTATCATQRLAEFLRHSSPNFGAIPSSTNVGHETY-NH2
modifications: disulfide 2-7; N-terminus assumed
SMILES: CC[C@H](C)[C@H](NC(=O)[C@H](C)NC(=O)CNC(=O)[C@H](Cc1ccccc1)NC(=O)[C@H](CC(N)=O)NC(=O)[C@@H]1CCCN1C(=O)[C@H](CO)NC(=O)[C@H](CO)NC(=O)[C@H](Cc1c[nH]cn1)NC(=O)[C@H](CCCNC(=N)N)NC(=O)[C@H](CC(C)C)NC(=O)[C@H](Cc1ccccc1)NC(=O)[C@H](CCC(=O)O)NC(=O)[C@H](C)NC(=O)[C@H](CC(C)C)NC(=O)[C@H](CCCNC(=N)N)NC(=O)[C@H](CCC(N)=O)NC(=O)[C@@H](NC(=O)[C@H](C)NC(=O)[C@@H]1CSSC[C@H](NC(=O)[C@@H](N)CCCCNC(=O)CC[C@H](NC(=O)CC[C@H](NC(=O)CCCCCCCCCCCCCCCCCCC(=O)O)C(=O)O)C(=O)O)C(=O)N[C@@H](CC(N)=O)C(=O)N[C@@H]([C@@H](C)O)C(=O)N[C@@H](C)C(=O)N[C@@H]([C@@H](C)O)C(=O)N1)[C@@H](C)O)C(=O)N1CCC[C@H]1C(=O)N[C@@H](CO)C(=O)N[C@@H](CO)C(=O)N[C@H](C(=O)N[C@@H](CC(N)=O)C(=O)N[C@H](C(=O)NCC(=O)N[C@@H](Cc1c[nH]cn1)C(=O)N[C@@H](CCC(=O)O)C(=O)N[C@H](C(=O)N[C@@H](Cc1ccc(O)cc1)C(N)=O)[C@@H](C)O)C(C)C)[C@@H](C)O
In the case of B4, in experiment [1], the “Ratio hCT/hAmylin binding” value was 29.1. Also, the IC50 in experiment [2] is 15.2 nM.

B5: N^ε1-[(4S)-4-carboxy-4-(19-carboxynonadecanoylamino)butanoyl]-[His14,Arg17,Pro21,Pro27,His35]-h-amylin (peptide)
peptide: K([γGlu-C20 diacid])CNTATCATQRLAHFLRHSSPNFGAIPSSTNVGSHTY-NH2
modifications: disulfide 2-7; N-terminus assumed
SMILES: CC[C@H](C)[C@H](NC(=O)[C@H](C)NC(=O)CNC(=O)[C@H](Cc1ccccc1)NC(=O)[C@H](CC(N)=O)NC(=O)[C@@H]1CCCN1C(=O)[C@H](CO)NC(=O)[C@H](CO)NC(=O)[C@H](Cc1c[nH]cn1)NC(=O)[C@H](CCCNC(=N)N)NC(=O)[C@H](CC(C)C)NC(=O)[C@H](Cc1ccccc1)NC(=O)[C@H](Cc1c[nH]cn1)NC(=O)[C@H](C)NC(=O)[C@H](CC(C)C)NC(=O)[C@H](CCCNC(=N)N)NC(=O)[C@H](CCC(N)=O)NC(=O)[C@@H](NC(=O)[C@H](C)NC(=O)[C@@H]1CSSC[C@H](NC(=O)[C@@H](N)CCCCNC(=O)CC[C@H](NC(=O)CCCCCCCCCCCCCCCCCCC(=O)O)C(=O)O)C(=O)N[C@@H](CC(N)=O)C(=O)N[C@@H]([C@@H](C)O)C(=O)N[C@@H](C)C(=O)N[C@@H]([C@@H](C)O)C(=O)N1)[C@@H](C)O)C(=O)N1CCC[C@H]1C(=O)N[C@@H](CO)C(=O)N[C@@H](CO)C(=O)N[C@H](C(=O)N[C@@H](CC(N)=O)C(=O)N[C@H](C(=O)NCC(=O)N[C@@H](CO)C(=O)N[C@@H](Cc1c[nH]cn1)C(=O)N[C@H](C(=O)N[C@@H](Cc1ccc(O)cc1)C(N)=O)[C@@H](C)O)C(C)C)[C@@H](C)O
notes: also called compound 66
Take B5: the “Ratio hCT/hAmylin binding” value in experiment [1] stood at 45.5. Besides, the IC50 in experiment [2] turned out to be 18 nM.

B6: N^ε1-[(4S)-4-carboxy-4-(19-carboxynonadecanoylamino)butanoyl]-[His14,Arg17,Pro21,Pro27]-h-amylin (peptide)
peptide: K([γGlu-C20 diacid])CNTATCATQRLAHFLRHSSPNFGAIPSSTNVGSNTY-NH2
modifications: disulfide 2-7; N-terminus assumed
SMILES: CC[C@H](C)[C@H](NC(=O)[C@H](C)NC(=O)CNC(=O)[C@H](Cc1ccccc1)NC(=O)[C@H](CC(N)=O)NC(=O)[C@@H]1CCCN1C(=O)[C@H](CO)NC(=O)[C@H](CO)NC(=O)[C@H](Cc1c[nH]cn1)NC(=O)[C@H](CCCNC(=N)N)NC(=O)[C@H](CC(C)C)NC(=O)[C@H](Cc1ccccc1)NC(=O)[C@H](Cc1c[nH]cn1)NC(=O)[C@H](C)NC(=O)[C@H](CC(C)C)NC(=O)[C@H](CCCNC(=N)N)NC(=O)[C@H](CCC(N)=O)NC(=O)[C@@H](NC(=O)[C@H](C)NC(=O)[C@@H]1CSSC[C@H](NC(=O)[C@@H](N)CCCCNC(=O)CC[C@H](NC(=O)CCCCCCCCCCCCCCCCCCC(=O)O)C(=O)O)C(=O)N[C@@H](CC(N)=O)C(=O)N[C@@H]([C@@H](C)O)C(=O)N[C@@H](C)C(=O)N[C@@H]([C@@H](C)O)C(=O)N1)[C@@H](C)O)C(=O)N1CCC[C@H]1C(=O)N[C@@H](CO)C(=O)N[C@@H](CO)C(=O)N[C@H](C(=O)N[C@@H](CC(N)=O)C(=O)N[C@H](C(=O)NCC(=O)N[C@@H](CO)C(=O)N[C@@H](CC(N)=O)C(=O)N[C@H](C(=O)N[C@@H](Cc1ccc(O)cc1)C(N)=O)[C@@H](C)O)C(C)C)[C@@H](C)O
notes: also called compound 70
For B6, the “Ratio hCT/hAmylin binding” value in experiment [1] turned out to be 60.8. In addition, in experiment [2], the IC50 was 10.3 nM.
